Experimental data: the supplement of paper PMC9233669
Variants at the floor of the assay were thinned out.

Assays:
[1] = system: biotinyl-Phe-oxazolone; assay: self-aminoacylation, catalytic enhancement (BFO) (fold over background); higher = more active; k-Seq, kA / k0A0; sequences stand for … in GGGAAUGGAUCCACAUCUACGAAUUC…UUCACUGCAGACUUGACGAAGCUG
Procedure, shortened: (§1)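 Mutagenized RNA pools with a 21-nt variable region (0.43 μM) reacted with each biotinyl-aminoacyl-oxazolone at 2–1250 μM. Reactions ran in 50 μL HEPES/NaCl/KCl/MgCl2/CaCl2 buffer with 5% acetonitrile, pH 6.9–7.0, for 90 minutes at room temperature. Streptavidin-captured RNA was quantified by triplicate qPCR and Illumina sequencing, and per-sequence fraction reacted was fit to a pseudo-first-order model with 1000 bootstraps. Catalytic enhancement is median kA divided by the uncatalyzed rate, the low-activity peak of a bimodal Gaussian fit.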

[2] = system: biotinyl-Ile-oxazolone; assay: self-aminoacylation, catalytic enhancement (BIO) (fold over background); higher = more active; k-Seq, kA / k0A0; sequences stand for … in GGGAAUGGAUCCACAUCUACGAAUUC…UUCACUGCAGACUUGACGAAGCUG
Procedure, shortened: as §1

[3] = system: biotinyl-Met-oxazolone; assay: self-aminoacylation, catalytic enhancement (BMO) (fold over background); higher = more active; k-Seq, kA / k0A0; sequences stand for … in GGGAAUGGAUCCACAUCUACGAAUUC…UUCACUGCAGACUUGACGAAGCUG
Procedure, shortened: as §1

[4] = system: biotinyl-Val-oxazolone; assay: self-aminoacylation, catalytic enhancement (BVO) (fold over background); higher = more active; k-Seq, kA / k0A0; sequences stand for … in GGGAAUGGAUCCACAUCUACGAAUUC…UUCACUGCAGACUUGACGAAGCUG
Procedure, shortened: as §1

[5] = system: biotinyl-Leu-oxazolone; assay: self-aminoacylation, catalytic enhancement (BLO) (fold over background); higher = more active; k-Seq, kA / k0A0; sequences stand for … in GGGAAUGGAUCCACAUCUACGAAUUC…UUCACUGCAGACUUGACGAAGCUG
Procedure, shortened: as §1

[6] = system: biotinyl-Trp-oxazolone; assay: self-aminoacylation, catalytic enhancement (BWO) (fold over background); higher = more active; k-Seq, kA / k0A0; sequences stand for … in GGGAAUGGAUCCACAUCUACGAAUUC…UUCACUGCAGACUUGACGAAGCUG
Procedure, shortened: as §1

Sequence | self-aminoacylation [1] | self-aminoacylation [2] | self-aminoacylation [3] | self-aminoacylation [4] | self-aminoacylation [5] | self-aminoacylation [6]
AAAAUUGCUAAUAGUCGCAAG [Fam3.1 aminoacylation ribozyme variant] | 2.58 | 1.93 | 1.33 | 1.73 | 1.78 | 3.04
AAAUAUGCUAAUAGUCGCAAG [Fam3.1 aminoacylation ribozyme variant] | 2.27 | 2.03 | 1.45 | 1.55 | 1.44 | 2.25
AAAUUUGCUAAUAGUCGCUAG [Fam3.1 aminoacylation ribozyme variant] | 2.81 | 1.73 | 1.22 | 1.58 | 1.38 | 2.84
AACUUUGCUCAUAGUCGCAAG [Fam3.1 aminoacylation ribozyme variant] | 10.8 | 2.01 | 2 | – | 2.47 | 2.34
AAGCUUGUUAAUAGUCGCAAG [Fam3.1 aminoacylation ribozyme variant] | 3.63 | 2.21 | 2.26 | – | 2.38 | 2.3
AAGUUCGCUAAUAGUCGCAAA [Fam3.1 aminoacylation ribozyme variant] | 4.42 | 2.49 | 2.01 | – | 2.63 | 2.76
AAGUUCGCUAAUAGUCGCAAU [Fam3.1 aminoacylation ribozyme variant] | 3.19 | – | 2.1 | 2.03 | – | 2.44
AAUACCCUGUUCAUCGAGUGA [Fam2.1 aminoacylation ribozyme variant] | 9.83 | – | 3 | 2.14 | 3.46 | 4.5
AAUUUAGCUAAUAGUCGCAAG [Fam3.1 aminoacylation ribozyme variant] | 2.58 | 2.02 | – | – | – | –
AAUUUUACUAAUAGUCGCAAG [Fam3.1 aminoacylation ribozyme variant] | 2.67 | 2.01 | – | – | – | –
ACUACCCUCGUCAUCGAGUGA [Fam2.1 aminoacylation ribozyme variant] | 4.34 | – | 2.71 | 2.32 | 3.13 | 2.14
AGGUUUGCCAAUAGUCGCAAG [Fam3.1 aminoacylation ribozyme variant] | 9.52 | 2.1 | 2.31 | – | 2.31 | 3.7
AGUCACCUAGGUCAUCAGGUG [Fam2.2 aminoacylation ribozyme variant] | 8.84 | – | – | 2.09 | 2.1 | –
AUUACCCUGGUCUGCGAGUGA [Fam2.1 aminoacylation ribozyme variant] | 9.18 | – | 2.15 | – | 2.72 | 2.62
AUUACCCUGUUCAUCGAGUGU [Fam2.1 aminoacylation ribozyme variant] | – | – | 2.84 | 2.02 | 2.1 | 3.95
AUUACUCUGGUCAUCAAGUGA [Fam2.1 aminoacylation ribozyme variant] | 4.38 | – | 2.47 | – | 2.29 | 3.07
AUUAGCCUGGUCAUCGAGUGG [Fam2.1 aminoacylation ribozyme variant] | 2.98 | – | 2.81 | – | 2.35 | 3.05
AUUCACCAAGGUCAUCGGGGG [Fam2.2 aminoacylation ribozyme variant] | 11.9 | 2.02 | 2.23 | – | 2.72 | 2.91
AUUCACCCAGCUCAUCGGGUG [Fam2.2 aminoacylation ribozyme variant] | 6.9 | 2.73 | 2.49 | 2.19 | 2.43 | –
AUUCACCCAGGUCAUCGGGUU [Fam2.2 aminoacylation ribozyme variant] | 6.46 | – | 2.16 | 2.14 | 2.65 | –
AUUCACCGAGGUCAUCGGUUG [Fam2.2 aminoacylation ribozyme variant] | 29 | – | 3.52 | – | 4.89 | 2.6
AUUCACCUAAUUCAUCGGGUG [Fam2.2 aminoacylation ribozyme variant] | 15.5 | – | 2.68 | – | 3.05 | 3.32
AUUCACCUAGCUGAUCGGGUG [Fam2.2 aminoacylation ribozyme variant] | 8.31 | 2.29 | – | 2.63 | 2.82 | –
AUUCACCUAGGACAUCGGGGG [Fam2.2 aminoacylation ribozyme variant] | 10.4 | – | 3.13 | 2.18 | 2.63 | –
AUUCACCUAGGUAACCGGGUG [Fam2.2 aminoacylation ribozyme variant] | 11 | – | 2.57 | – | 2.85 | 2.56
AUUCACCUAGGUCAUCGCGUC [Fam2.2 aminoacylation ribozyme variant] | 9.82 | – | 2.3 | 2.15 | – | 2.85
AUUCACCUCGGUCAUCGAGUG [Fam2.2 aminoacylation ribozyme variant] | 13.1 | – | 2.33 | – | 2.88 | 2.51

Sequence | self-aminoacylation [1] | self-aminoacylation [2] | self-aminoacylation [3] | self-aminoacylation [4] | self-aminoacylation [5] | self-aminoacylation [6]
AUUCACCUGGGUCAUCGGCUG [Fam2.2 aminoacylation ribozyme variant] | 8.1 | 2.01 | – | 2.54 | 2.27 | –
CAACUUCAAACAAUCGGGCUG [Fam1A.1 aminoacylation ribozyme variant] | 23.8 | 2.18 | – | 2.25 | 2.58 | 20.1
CCACAACUCAAGCAAUCGGUC [Fam1B.1 aminoacylation ribozyme variant] | 2.62 | – | – | 2.23 | – | –
CCACACGUCAAGCAAUCCGUC [Fam1B.1 aminoacylation ribozyme variant] | – | – | – | 2.22 | – | 2.45
CCACACUCCAAGCAUUCGGUC [Fam1B.1 aminoacylation ribozyme variant] | – | – | – | 2.83 | – | –
CCACACUGCAAGCAAUCGGGC [Fam1B.1 aminoacylation ribozyme variant] | – | – | – | 2.56 | – | 3
CCACACUUCAAGCAAUGGGCC [Fam1B.1 aminoacylation ribozyme variant] | – | – | – | 2.81 | – | –
CCACACUUCAAGCAGUCGGGC [Fam1B.1 aminoacylation ribozyme variant] | – | 2.15 | 2.5 | 2.36 | 2.19 | –
CCACACUUCAAGCAUUCCGUC [Fam1B.1 aminoacylation ribozyme variant] | – | 3.19 | 2.55 | 3 | 2.51 | 3.14
CCACACUUCAAGCCAUCGGUU [Fam1B.1 aminoacylation ribozyme variant] | 2.81 | – | – | 2.18 | – | 2.06
CCACACUUGAAGCAAUCGGCC [Fam1B.1 aminoacylation ribozyme variant] | – | – | – | 3.19 | 2.24 | 2.29
CCAGACUUCAAGCAAUCGGGC [Fam1B.1 aminoacylation ribozyme variant] | – | 2.71 | – | 3.13 | 2.69 | 3.72
CCCCACUCCAAGCAAUCGGUC [Fam1B.1 aminoacylation ribozyme variant] | 8.62 | – | – | 2.19 | – | 6.53
CCCCACUUCAAGCAGUCGGUC [Fam1B.1 aminoacylation ribozyme variant] | 3.77 | – | – | 2.23 | 2.2 | 3.29
CCCCACUUCGAGCAAUCGGUC [Fam1B.1 aminoacylation ribozyme variant] | 5.48 | 2.2 | – | 2.51 | 2.16 | 4.05
CCCCAUUUCAAGCAAUCGGUC [Fam1B.1 aminoacylation ribozyme variant] | 9.72 | 2.26 | – | 2.07 | – | 7.54
CCGCACCUCAAGCAAUCGGUC [Fam1B.1 aminoacylation ribozyme variant] | 6.19 | – | – | 2.16 | – | 5.62
CCGCUUCAAACAAUCGGUCUG [Fam1A.1 aminoacylation ribozyme variant] | 257 | – | 2.68 | 2.4 | 4.82 | 95.9
CUACGUCAAACAAUCGGCCUG [Fam1A.1 aminoacylation ribozyme variant] | – | 2.56 | 2.29 | 2.84 | 2.69 | 4.49
CUACUUCAAACAAUCGGCCGG [Fam1A.1 aminoacylation ribozyme variant] | 2.44 | 2.09 | – | – | – | –
CUUACCCUGCUCAUCGAGUGA [Fam2.1 aminoacylation ribozyme variant] | 2.86 | – | 2.57 | – | 2.19 | 2.2
CUUACCCUGGUCAUCGAGGGA [Fam2.1 aminoacylation ribozyme variant] | – | – | – | 2.04 | – | –
CUUACCCUGGUCAUCGAGUGC [Fam2.1 aminoacylation ribozyme variant] | 4.77 | – | 2.91 | – | 3.18 | 3.03
CUUCACCUAGGUCAUCGGGCG [Fam2.2 aminoacylation ribozyme variant] | – | 2.36 | 3.57 | 2.97 | 2.75 | 4.39
GAGUUUGCUAAUAGUCGCAAU [Fam3.1 aminoacylation ribozyme variant] | 2.19 | 2.21 | – | – | – | 3.41
UUUACCCUGGUCAUCGAGGGA [Fam2.1 aminoacylation ribozyme variant] | 3.55 | – | – | 2.19 | – | 2.85
